Test results taken from patent US20220119541A1 (PHARMAEXPLORER, published 2022).
Where two headings read alike, the source gives them in different places. One block for each binder: values may come before it.

Experiments:
[1] = molecular target: T1, human GITR (full length, on cells) (human, UniProt Q9Y5U5 26-241); assay: flow cytometry (FACS) on 293F-hGITR cells, MFI curve fit
T1 construct: whole, on cells; Also used here for hGITR on the Jurkat reporter cells and on spleen cells of mice knocked-in with the human GITR gene; also called hGITR
T1 sequence (looked up): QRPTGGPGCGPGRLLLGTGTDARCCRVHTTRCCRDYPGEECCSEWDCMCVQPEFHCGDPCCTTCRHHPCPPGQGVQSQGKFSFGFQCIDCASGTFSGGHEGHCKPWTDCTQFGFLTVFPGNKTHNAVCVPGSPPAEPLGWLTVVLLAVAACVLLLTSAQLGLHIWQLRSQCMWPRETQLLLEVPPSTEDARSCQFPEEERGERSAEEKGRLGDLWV
Method: (§1) The pIRES plasmid with the monkey-derived GITR full-length gene was transfected into the HEK293 cell line to construct a HEK293 stable cell line containing monkey GITR (herein referred to as HEK293-cGITR stable cell line), wherein the database accession number of the monkey GITR nucleotide sequence is XP_005545180.1. The tool antibody Tab9H6v3 was constructed with reference to the patent (US_2015_0064204_A1). […] The medium was aspirated, and the cells were incubated with chimeric anti-GITR antibody or IgG1 isotype control antibody in PBS+2% FBS for 1 hour so that the antibody binds to the GITR protein expressed on the cell surface. Cells were collected and washed, and then incubated with anti-human antibody conjugated with fluorescent dye at 4° C. for 1 hour. Mean fluorescence intensity (MFI) of chimeric anti-GITR antibodies bound to cells expressing hGITR or cGITR was determined by flow cytometry. The EC50 of the fitting curve was calculated by GraphPad Prism software. The antibody to be tested can bind to human or monkey GITR protein on the cell surface. The data in the table is the average fluorescence intensity values of the cell populations measured by MFI.

[2] = molecular target: T2, monkey GITR (full length, on cells) (monkey); assay: flow cytometry (FACS) on 293F-cGITR cells, MFI curve fit
T2 construct: whole, on cells; also called cGITR
Method: as §1

[3] = molecular target: T1, human GITR (full length, on cells); assay: cell-based or functional assay
[4] = molecular target: T3, hGITR-ECD-hFc (human, UniProt Q9Y5U5 26-161); assay: ELISA, hGITR-ECD-hFc coated on plate, HRP anti-human Fab detection
T3 construct: ECD put first; also called immunogen A; human GITR extracellular domain protein with hFc tag; not shown: human IgG Fc fragment (hFc) of the pCpC vector
T3 chain: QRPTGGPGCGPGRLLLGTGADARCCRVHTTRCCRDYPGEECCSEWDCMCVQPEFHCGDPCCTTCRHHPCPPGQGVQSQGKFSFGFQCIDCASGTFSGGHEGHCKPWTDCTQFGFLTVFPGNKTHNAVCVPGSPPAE
Method: (§2) HGITR-ECD-hFc protein and cGITR-ECD-hFc protein were diluted to 1 μg/ml with PBS hydrochloric acid buffer (pH 7.2), and 100 μl dilution was added to 96-well ELISA microplate, and incubated at 4° C. overnight. The microplate was washed three times with 300 μl/well wash buffer PBST (PBS+0.05% Tween-20), 300 μl blocking buffer (PBST+1% BSA) was added to each well, and incubated at room temperature for 2 hours. The plate was washed three times, 100 μl, 10 μg/ml anti-GITR antibody was added to each well, and was incubated at 37° C. for 1 hour. The plate was washed three times, 100 μl horseradish peroxidase (HRP) labeled anti-human Fab secondary antibody was added to each well, and was incubated at 37° C. for half an hour. The plate was washed three times, 100 μl tetramethylbenzidine (TMB) was added to each well. After 15 minutes of color development, 50 μl 1N HCl termination solution was added to each well, and the OD450 value was read with a plate reader. The EC50 of the binding curve was calculated by GraphPad Prism software.
The binding activity of the engineered fully human anti-GITR antibody to the hGITR-ECD-hFc protein or the cGITR-ECD-hFc protein was detected by an enzyme-linked immunosorbent assay iaccording to the step (1) of Example 5.

[5] = molecular target: T3, hGITR-ECD-hFc; assay: SPR (Biacore), hGITR-ECD-hFc immobilised on CM5 chip, antibody as analyte
Method: (§3) The antigen hGITR-ECD-hFc was immobilized on the chip surface in manual mode using the running buffer HBS-EP+(10 mM HEPES, 150 mM NaCl, 3 mM EDTA, 0.05% P20, pH 7.4). First, a fresh mixture of 50 mM NHS and 200 mM EDC was used to activate the flow cell 4 of the tandem S CM5 sensor chip. The antigen was then diluted to 1 μg/ml with 10 mM NaAC (pH 5.0) and was injected into flow cell 4 for approximately 40 seconds. Finally, 1 M ethanolamine was used to block the remaining active coupling sites.
Binding kinetics and affinity of the engineered fully human anti-GITR antibody to the antigen hGITR-ECD-hFc protein were tested by Biacore according to step (5) of Example 5, and the results are shown in Table 17.

[6] = molecular target: T1, human GITR (full length, on cells); assay: cell-based or functional assay; remark: listed apart in the source
[7] = molecular target: T4, cGITR-ECD-hFc (rhesus; human, UniProt F7DDV8 14-149); assay: ELISA, cGITR-ECD-hFc coated on plate, HRP anti-human Fab detection
[8] = molecular target: T3, hGITR-ECD-hFc; assay: SPR (Biacore T200), hGITR-ECD-hFc immobilised on CM5 chip, antibody as analyte
Method: as §3
Buffer flow was maintained for 600 seconds to determine dissociation. To remove the test antibody from the surface, 10 mM Glycine-HCl (pH 1.5) was injected into flow cells 1 and 4 at a flow rate of 10 μ L/min for 30 seconds. The above steps were repeated for each concentration of continuously diluted antibodies.
The KD value of each antibody was evaluated using Biacore T200 evaluation software 3.0, where flow cell 1 was used as a reference flow cell.

[9] = molecular target: T1, human GITR (full length, on cells); assay: flow cytometry (FACS) on 293F-hGITR cells, MFI curve fit; remark: listed apart in the source
Method: as §1

[10] = molecular target: T4, cGITR-ECD-hFc; assay: ELISA, cGITR-ECD-hFc coated on plate, HRP anti-human Fab detection; remark: listed apart in the source
[11] = molecular target: T3, hGITR-ECD-hFc; assay: ELISA, hGITR-ECD-hFc coated on plate, HRP anti-human Fab detection
Method: as §2

[12] = molecular target: T2, monkey GITR (full length, on cells); assay: flow cytometry (FACS) on 293F-cGITR cells, MFI curve fit; remark: listed apart in the source
Method: as §1

[13] = molecular target: T1, human GITR (full length, on cells); assay: cell-based or functional assay; remark: listed apart in the source

T4 sequence (F7DDV8 entry or part of it): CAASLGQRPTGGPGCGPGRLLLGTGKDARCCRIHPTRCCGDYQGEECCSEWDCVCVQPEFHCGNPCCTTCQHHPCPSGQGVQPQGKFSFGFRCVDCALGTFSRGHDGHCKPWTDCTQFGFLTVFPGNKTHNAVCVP

EC50 [1]: 0.07 nM | EC50 [2]: 0.01 nM | Activation of NF-κB activity, EC50 (nM), Coupling (Crosslinking) [3]: 12.5 nM
B1: 3503-mAb019 (antibody, V domains shown)
VH: QVQLVESGGGVVQPGRSLRLSCAASGFTFSSYGMHWVRQAPGKGLEWVAVIWYAGSRKFYADSVEGRFTISRDNSKNTLYLQMSSVRPEDTAVYYCARGGSLDGGFFYYGMDVWGQGTTVTVSS
VL: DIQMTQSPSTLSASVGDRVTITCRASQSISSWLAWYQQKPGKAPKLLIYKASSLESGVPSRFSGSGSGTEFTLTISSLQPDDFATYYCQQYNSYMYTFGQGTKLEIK
notes: Chimeric antibody purified from hybridoma supernatant of Harbour H2L2 mice: human variable regions with rat constant regions; also called 96A10H9; chimeric anti-GITR antibody

EC50 [4]: 0.089 nM | Kd [5]: 0.384 nM | koff [5]: 0.00023 s⁻¹ | kon [5]: 600000 M⁻¹ s⁻¹ | Activation of NF-κB activity, EC50 (nM), Coupling [6]: 1.74 nM | Activation of NF-κB activity, EC50 (nM), Non-coupling [6]: 0.139 nM | EC50 [7]: 0.096 nM | EC50 [1]: 0.155 nM | EC50 [2]: 0.31 nM
B2: 3503-hab019e2 (antibody, V domains shown)
VH: QVQLVESGGGVVQPGRSLRLSCAASGFTFSSYGMHWVRQAPGKGLEWVAVIWYAGSRKFYADSVEGRFTISRDNSKNTLYLQMNSLRAEDTAVYYCARGGSLEGGFFYYGMDVWGQGTTVTVSS
VL: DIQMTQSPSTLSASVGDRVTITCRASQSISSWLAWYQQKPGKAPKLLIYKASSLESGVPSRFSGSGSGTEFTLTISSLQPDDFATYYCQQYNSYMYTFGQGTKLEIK
notes: also called 96A10H9; engineered fully human anti-GITR antibody

Kd [8]: 1.03 nM | koff [8]: 0.000684 s⁻¹ | kon [8]: 664000 M⁻¹ s⁻¹ | EC50 [9]: 0.173 nM | EC50 [10]: 0.0551 nM | EC50 [11]: 0.0593 nM | EC50 [12]: 0.58 nM | Activation of NF-κB activity, EC50 (nM), Coupling [13]: 1.33 nM | Activation of NF-κB activity, EC50 (nM), Non-coupling [13]: 0.127 nM
B5: 3503-hab076 (antibody, V domains shown)
VH: QVQLVESGGGVVQPGRSLRLSCAASGFTFSSYGMHWVRQAPGKGLEWVAVIWYETSNKYYADSVKGRFTISRDNSKNTLYLQMNSLRAEDTAVYYCARYGASSGWYWYFDLWGRGTLVTVSS
VL: DIQLTQSPSFLSASVGDRVTITCRASQGISSYLAWYQQKPGKAPKLLIYAASTLQSGVPSRFSGSGSGTEFTLTISSLQPEDFATYCCQQLNSYPFTFGQGTKLEIK
notes: also called 277C12G4; fully human anti-GITR antibody

EC50 [1]: 0.385 nM | EC50 [2]: 0.404 nM | Activation of NF-κB activity, EC50 (nM), Coupling (Crosslinking) [3]: 0.101 nM | Activation of NF-κB activity, EC50 (nM), Non-coupling (Non-Crosslinking) [3]: > 0.2 nM
B6: 3503-mAb064 (antibody, V domains shown)
VH: QVQLVESGGGVVQPGRSLRLSCAASGFTFSSYGMHWVRQAPGKGLEWVAVIWYETSNKYYADSVKGRFTISRDNSKNTLYLQMNNLRAEDTAVYYCARYGGNSGWYWYFDLWGRGTLVTVSS
VL: DIQLTQSPSFLSASVGDRVTITCRASQGISSFLAWYQQKPGTAPKLLIYAASTLQSGVPSRFSGSGSGTEFTLTISSLQPEDFATYCCQQLNSYPFTFGQGTKLEIK
notes: Chimeric antibody purified from hybridoma supernatant of Harbour H2L2 mice: human variable regions with rat constant regions; also called 265G9A11; chimeric anti-GITR antibody

More lines, now with the values behind:

B3: 3503-hab064 (antibody, V domains shown)
VH: QVQLVESGGGVVQPGRSLRLSCAASGFTFSSYGMHWVRQAPGKGLEWVAVIWYETSNKYYADSVKGRFTISRDNSKNTLYLQMNNLRAEDTAVYYCARYGGNSGWYWYFDLWGRGTLVTVSS
VL: DIQLTQSPSFLSASVGDRVTITCRASQGISSFLAWYQQKPGTAPKLLIYAASTLQSGVPSRFSGSGSGTEFTLTISSLQPEDFATYCCQQLNSYPFTFGQGTKLEIK
notes: also called 265G9A11; fully human anti-GITR antibody
Kd [8]: 0.592 nM | koff [8]: 0.000315 s⁻¹ | kon [8]: 532000 M⁻¹ s⁻¹ | EC50 [9]: 0.194 nM | EC50 [10]: 0.0369 nM | EC50 [11]: 0.0443 nM | EC50 [12]: 0.254 nM | Activation of NF-κB activity, EC50 (nM), Coupling [13]: 2.8 nM | Activation of NF-κB activity, EC50 (nM), Non-coupling [13]: 0.177 nM

B4: 3503-mAb070 (antibody, V domains shown)
VH: QVQLVESGGGVVQPGRSLRLSCAASGFTFSSYGMHWVRQAPGKGLEWVAVIWYETSNKFYVDSVKGRFTISRDNSKNTLYLQMNSLRAEDTAVYYCARYGASSGWYWYFDLWGRGTLVTVSS
VL: DIQLTQSPSFLSASVGDRVTITCRASQGISSFLAWYQQKPGKAPKLLIYAASTLQSGVPSRFSGSGSGTEFTLTISSLQPEDFATYCCQQLNSYPFTFGQGTKLEIK
notes: Chimeric antibody purified from hybridoma supernatant of Harbour H2L2 mice: human variable regions with rat constant regions; also called 272G5E1; chimeric anti-GITR antibody
EC50 [1]: 0.358 nM | EC50 [2]: 0.198 nM | Activation of NF-κB activity, EC50 (nM), Coupling (Crosslinking) [3]: > 0.09 nM | Activation of NF-κB activity, EC50 (nM), Non-coupling (Non-Crosslinking) [3]: 0.062 nM

B7: 3503-mAb076 (antibody, V domains shown)
VH: QVQLVESGGGVVQPGRSLRLSCAASGFTFSSYGMHWVRQAPGKGLEWVAVIWYETSNKYYADSVKGRFTISRDNSKNTLYLQMNSLRAEDTAVYYCARYGASSGWYWYFDLWGRGTLVTVSS
VL: DIQLTQSPSFLSASVGDRVTITCRASQGISSYLAWYQQKPGKAPKLLIYAASTLQSGVPSRFSGSGSGTEFTLTISSLQPEDFATYCCQQLNSYPFTFGQGTKLEIK
notes: Chimeric antibody purified from hybridoma supernatant of Harbour H2L2 mice: human variable regions with rat constant regions; also called 277C12G4; chimeric anti-GITR antibody
EC50 [1]: 0.152 nM | EC50 [2]: 0.226 nM | Activation of NF-κB activity, EC50 (nM), Coupling (Crosslinking) [3]: > 0.27 nM | Activation of NF-κB activity, EC50 (nM), Non-coupling (Non-Crosslinking) [3]: > 0.09 nM

B8: 3503-hab070e1 (antibody, V domains shown)
VH: QVQLVESGGGVVQPGRSLRLSCAASGFTFSSYGMHWVRQAPGKGLEWVAVIWYETSNKFYVDSVKGRFTISRDNSKNTLYLQMNSLRAEDTAVYYCARYGASSGWYWYFDLWGRGTLVTVSS
VL: DIQLTQSPSFLSASVGDRVTITCRASQGISSFLAWYQQKPGKAPKLLIYAASTLQSGVPSRFSGSGSGTEFTLTISSLQPEDFATYYCQQLNSYPFTFGQGTKLEIK
notes: also called 272G5E1; engineered fully human anti-GITR antibody
EC50 [4]: 0.074 nM | Kd [5]: 0.537 nM | koff [5]: 0.000381 s⁻¹ | kon [5]: 710000 M⁻¹ s⁻¹ | Activation of NF-κB activity, EC50 (nM), Coupling [6]: 4.08 nM | Activation of NF-κB activity, EC50 (nM), Non-coupling [6]: 0.0957 nM | EC50 [7]: 0.062 nM | EC50 [1]: 0.169 nM | EC50 [2]: 0.264 nM
